Test results taken from EP4659811A1 (Université de Strasbourg, dated 2025).

Experiments:
[1] = target: VP1 capsid protein on BKV pseudovirions of genotype Ia (BK-D; JF894228) (BK virus genotype Ia (BK-D)); assay: cell-based or functional assay
[2] = target: VP1 capsid protein on BKV pseudovirions of genotype II (GBR-12; AB263920) (BK virus genotype II (GBR-12)); assay: cell-based or functional assay
[3] = target: VP1 capsid protein on BKV pseudovirions of genotype IVc2 (A-66H; AB369093) (BK virus genotype IVc2 (A-66H)); assay: cell-based or functional assay
[4] = target: T1, VP1 pentamer of BKV genotype II (recombinant) (BK virus genotype II, UniProt P14996 30-300); assay: ELISA, coated VP1 pentamer
T1 construct: also called GII; VP1 geno II pentamer; not shown: N-terminal His-tag of pESPRIT002; C-terminal biotin acceptor peptide (BAP) of pESPRIT002

[5] = target: T2, VP1 pentamer of BKV genotype IV (recombinant) (BK virus genotype IV, UniProt P14996 30-300); assay: ELISA, coated VP1 pentamer
T2 construct: also called GIV; VP1 BKV subtype IV; not shown: N-terminal His-tag of pESPRIT002; C-terminal biotin acceptor peptide (BAP) of pESPRIT002

B1: antibody F2P7 (antibody, V domains shown)
VH: EVQLVQSGGGLVQPGGSLKLSCAASGFSSSGSEIHWVRQASGRGLEWIGRVRSTANRHAPGYTESVRGTFTVSRDESKNTASLELKSLKIEDTAVYYCTGVRGVISRYFAMDVWGQGTTVTVSS
VL: QSALTQPASVSGSPGQSITISCTGTNSDLGSYNYVSWYRLHPGKDPHLIIYDVTHRPSGVSSRFSGSKSGKTASLTISGLQSEDEAEYFCCSYASVGSPIFGGGTKVTVL
- Neutralization PSV IC50 [1]: > 50 µg/mL
- Neutralization PSV IC50 [2]: > 50 µg/mL
- Neutralization PSV IC50 [3]: > 50 µg/mL
- EC50 [4]: 10 µg/mL
- EC50 [5]: 4 µg/mL

B2: antibody D7P6 (antibody, V domains shown)
VH: EVQLLESGGGLVQPGGSLRLSCAASGFPFSSYAMSWVRQAPGKGLEWVSGITGSASGTYYADSVKGRFTISRDNSKNTLYLRMNSLRAEDTAVYYCAKEGAYSYDYWYFDLWGRGTLVTVSS
VL: EIVLTQSPGTLSLSPGERATLSCRASQSVSGSYLAWYQQKPGQTPRLLIYGASSRATGIPDRFSGSGSGTDFTLTINRLDPEDFGVYYCQQYGSLVTFGGGSKVEIK
- Neutralization PSV IC50 [1]: 0.096 µg/mL
- Neutralization PSV IC50 [2]: 0.0103 µg/mL
- Neutralization PSV IC50 [3]: > 50 µg/mL
- EC50 [4]: 0.25 µg/mL
- EC50 [5]: 70 µg/mL

B3: antibody B7P6 (antibody, V domains shown)
VH: EVQLVQSGAELKKPGESLKISCKGSGFTFTNYWIAWVRQMPGKGLEWMGIIYPDDSDARYSPSFEGQVTISVDKSISTAYLQWSSLKASDTAIYYCARGGFCSGSVCYNPAWFDLWGQGTLVTVSS
VL: DIQMTQSPSSLSASVGDRVTITCRASQTINTYLNWYLQKPGKAPKLLISDASSLETGVPSRFSGSGSGTDFTLTISSLQPDDFATYYCQQSYSTPLTFGGGTKVEIK
- Neutralization PSV IC50 [1]: 0.0479 µg/mL
- Neutralization PSV IC50 [2]: 0.0044 µg/mL
- Neutralization PSV IC50 [3]: 0.121 µg/mL
- EC50 [4]: 0.04 µg/mL
- EC50 [5]: 0.1 µg/mL

B4: antibody E6P5 (antibody, V domains shown)
VH: EVQLVESGGGLVQPGRSLRLSCSASGFTFDDHAMHWVRQAPGKGLEWVAGINWNSASIVYADSVKGRFTISRDNVKNSLYLQMNSLRADDTALYYCAKDFGLWFGESRGIDAWGRGTTVTVSS
VL: DIVMTQSPLSLPVTPGEPASISCRPSQSLLHSNGYNYLNWYLQKPGRSPQLLIYLGSNRASGVPDRFSGSGSGTDFTLKISRVEAEDVGIYYCMQALQTPITFGQGTRLEIK
- Neutralization PSV IC50 [1]: 0.0008 µg/mL
- Neutralization PSV IC50 [2]: 0.232 µg/mL
- Neutralization PSV IC50 [3]: 1.19 µg/mL
- EC50 [4]: 0.6 µg/mL
- EC50 [5]: 3 µg/mL

B5: antibody B10P1 (antibody, V domains shown)
VH: EVQLSESGGGLVQPGGSLRLSCAASGFTFSSYAMSWVRQAPGKGLEWVSSLTGSGGSTYYRDSVKGRFTIFRDNSKKTLYMQMNSLRAEDTAVYYCAKEGAYSYDFWYFDLWGRGTLVTVSS
VL: EIVLTQSPGTLSLSPGERATLSCRASQTVSGNYLAWYQQKPGQSPSLLIYGASSRATGIPDRFTGSGSGTDFTLTISRLEPADFAVYYCQQYGRPLTFGGGTKVDIK
- Neutralization PSV IC50 [1]: 1.27 µg/mL
- Neutralization PSV IC50 [2]: 0.107 µg/mL
- Neutralization PSV IC50 [3]: > 50 µg/mL
- EC50 [4]: 2.8 µg/mL
- EC50 [5]: 15 µg/mL

B6: antibody G9P2 (antibody, V domains shown)
VH: EVQLLESGGGLVQPGGSLRLSCAASGFTFSSYAMSWVRQAPGKGLEWVSSLTGSGGSTYYRDSVKGRFTIFRDNSKKTLYMQMNSLRAEDTAVYYCAKEGAYSYDFWYFDLWGRGTLVTVSS
VL: EIVLTQSPGTLSLSPGERATLSCRASQTVSGNYLAWYQQKPGQSPSLLTYGASSRATGIPDRFTGSGSGTDFTLTISRLEPADFAVYYCQQYGRPLTFGGGTKVEIK
- Neutralization PSV IC50 [1]: 0.683 µg/mL
- Neutralization PSV IC50 [2]: 0.0336 µg/mL
- Neutralization PSV IC50 [3]: > 50 µg/mL
- EC50 [4]: 1.5 µg/mL
- EC50 [5]: 10 µg/mL

B7: antibody F3P7 (antibody, V domains shown)
VH: QVQLVQSGAEVKKPGASVKVSCKVSGYTFTSYSMHWLRQAPGQRLEWMGWINAGNGDTKYSQKFQGRITISRDTSARTTYMELSSLRSEDTAVFYCARSNSPTVTYNYYYYAMDVWGQGTTVTVSS
VL: EIVLTQSPGTLSLSPGERATLSCRASQSVRSSYLAWYQQQAGQAPRLLIYDASSRATGIPDRFSGSGSGTDFSLTISRLDPEDFAVYYCQQYGNSPLTFGGGTKVEIK
- Neutralization PSV IC50 [1]: > 50 µg/mL
- Neutralization PSV IC50 [2]: 0.0457 µg/mL
- Neutralization PSV IC50 [3]: 0.614 µg/mL
- EC50 [4]: 1.5 µg/mL
- EC50 [5]: 1.8 µg/mL

B8: antibody D11P7 (antibody, V domains shown)
VH: EVQLVESGGGLVQPGGSLRLSCAASGFTFRSYTMDWVRQAPGKGLEWVSCISGSSNHKYYADSVRGRFTISRDNAKNSLFLQMNSLRAEDSAVYYCAREDDILTPLYGMDVWGPGTTVTVSS
VL: QSALTQPASVSGSPGQSITISCTGTSSDVGAYNYVSWYRLRPGKDPHLIIYDVSHRPAGVSNRFSGSKSGNTASLTISGLQAEDEDEYYCCSYAHRGTPLFGGGTKLTVL
- Neutralization PSV IC50 [1]: 0.275 µg/mL
- Neutralization PSV IC50 [2]: 0.0901 µg/mL
- Neutralization PSV IC50 [3]: > 50 µg/mL
- binding result [4]: no binding (tested: starting at 50 µg/mL)
- binding result [5]: no binding (tested: starting at 50 µg/mL)

B9: antibody C11P7 (antibody, V domains shown)
VH: EVQLVESGGGLVQPGGSLKLSCAASGFSLSNSEVHWVRQASGKGLEWIGRVRSRANRHATGYTESVNGRFTVSRDDSKNTASLQLESLKIEDTAVYYCTGVRGVISRYFAMDVWGQGTTVTVSS
VL: QSALTQPASVSGSPGQSITISCTGTSSDVGAYNYVSWYRLRPGKDPHLIIYDVSHRPAGVSNRFSGSKSGNTASLTISGLQAEDEDEYYCCSYAHRGTPLFGGGTKLTVL
- Neutralization PSV IC50 [1]: > 50 µg/mL
- Neutralization PSV IC50 [2]: > 50 µg/mL
- Neutralization PSV IC50 [3]: > 50 µg/mL
- EC50 [4]: 6 µg/mL
- EC50 [5]: 4 µg/mL

B10: antibody E4P2 (antibody, V domains shown)
VH: QVQLQESGPGLVKPSQTLSLTCTVSGGSISSGGYYWSWIRQHPGKGLEWIGYMYYSGSTNYNPSLKSRVTISVDTSKNQFSLKLTSVTAADTAVYYCARDRRDYGDYYYFGMDVWGQGTTVTVSS
VL: QSVLTQPPSVSGAPGQRVTISCTGSSSNIGAGYDVHWYQQLPGTAPKLLIYANSNRPSGVPDRFSGSKSGTSASLAITGLQAEDEANYYCQSYDSSLSVYVVFGGGTKLTVL
- Neutralization PSV IC50 [1]: 0.0399 µg/mL
- Neutralization PSV IC50 [2]: 0.979 µg/mL
- Neutralization PSV IC50 [3]: > 50 µg/mL
- EC50 [4]: 0.025 µg/mL
- EC50 [5]: 0.18 µg/mL

B11: antibody F4P5 (antibody, V domains shown)
VH: EVQLVESGGGVVQPGRSLRLSCAASGFTFSNFGMHWVRQPPGKGLEWVAVISYDGSDKFYADSVKGRFTISRDNFKNTLYVQMNSLRAEDTAVYYCAKDRVRTKYYYDHSGPFDYWGRGTLVTVSS
VL: SYELTQPPSVSVAPGQTARIACGGNNIGSKSVHWYQQRPGQAPVLVVYDDDDRPSGIPERFSGSNSGNTATLTISRVEAGDEADYFCQVWMTNSDRPVFGGGTKLTVL
- Neutralization PSV IC50 [1]: 0.0008 µg/mL
- Neutralization PSV IC50 [2]: 0.471 µg/mL
- Neutralization PSV IC50 [3]: 15.9 µg/mL
- EC50 [4]: 10 µg/mL
- EC50 [5]: 12 µg/mL

B12: antibody D3P7 (antibody, V domains shown)
VH: QVQLVQSGSELKKPGASVRVSCKASAYTFTNSAINWVRQAPGQGLEWTGWINTNTGNPAYAQGFRGRFVFSLDTSVSEAYLQITNLKAEDTATYYCAVPYNFGGDHNSFHFFGMDVWGQGTTVTVSS
VL: QSALTQPASVSGSPGQSITISCTGSSSDVGTYNFVSWYQQQPAKAPKVMIYEGTKRPSGISDRFSGSKSGNTASLTISGLQAEDEADYYCSSYAGGNAFVFGTGTRVSVL
- Neutralization PSV IC50 [1]: > 50 µg/mL
- Neutralization PSV IC50 [2]: > 50 µg/mL
- Neutralization PSV IC50 [3]: > 50 µg/mL
- EC50 [4]: 0.15 µg/mL
- EC50 [5]: 0.3 µg/mL
